Measured values: article PMC10681739, “High-throughput data and modeling reveal insights into the mechanisms of cooperative DNA-binding by transcription factor proteins”

T1: ETS1 x2 (Homo sapiens, UniProt P14921)
T1 sequence: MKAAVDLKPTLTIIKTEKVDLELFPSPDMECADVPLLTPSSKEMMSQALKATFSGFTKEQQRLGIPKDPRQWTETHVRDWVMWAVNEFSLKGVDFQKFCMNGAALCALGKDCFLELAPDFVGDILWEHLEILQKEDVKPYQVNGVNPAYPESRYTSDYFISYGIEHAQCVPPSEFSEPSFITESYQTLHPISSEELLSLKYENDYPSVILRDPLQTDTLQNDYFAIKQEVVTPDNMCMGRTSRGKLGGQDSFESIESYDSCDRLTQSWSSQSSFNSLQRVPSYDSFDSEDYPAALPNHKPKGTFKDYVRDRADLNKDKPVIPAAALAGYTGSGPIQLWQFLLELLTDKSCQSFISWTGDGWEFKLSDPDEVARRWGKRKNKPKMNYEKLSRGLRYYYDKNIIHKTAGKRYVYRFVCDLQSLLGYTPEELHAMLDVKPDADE

B1: Table S4 A row 2241 (dsDNA)
DNA 1: GCGGCCTCCAAACATCCTCCGGAAGCTGCCACCTAC
DNA 2: GTAGGTGGCAGCTTCCGGAGGATGTTTGGAGGCCGC
B2: Table S4 A row 1500 (dsDNA)
DNA 1: CTCGTCGCCAGGGGAAGTGCTTCCTGCTGACAGGTC
DNA 2: GACCTGTCAGCAGGAAGCACTTCCCCTGGCGACGAG
B3: Table S4 A row 1239 (dsDNA)
DNA 1: GGGAGGCCCTGCAGGAAGCAGGATGTTGACCCGGAG
DNA 2: CTCCGGGTCAACATCCTGCTTCCTGCAGGGCCTCCC
B4: Table S4 A row 2542 (dsDNA)
DNA 1: GGGAAACTCCACAGGAAACGGAAATGGTCTCTCCCA
DNA 2: TGGGAGAGACCATTTCCGTTTCCTGTGGAGTTTCCC
B5: Table S4 A row 2210 (dsDNA)
DNA 1: AAAACACCCGGATGGAGTCGCACTTCCCGAGTCTCG
DNA 2: CGAGACTCGGGAAGTGCGACTCCATCCGGGTGTTTT
B6: Table S4 A row 2174 (dsDNA)
DNA 1: CAGCACGGGCCGCTTCCTTATCCGGTAAAGTGCGGG
DNA 2: CCCGCACTTTACCGGATAAGGAAGCGGCCCGTGCTG
B7: Table S4 A row 382 (dsDNA)
DNA 1: AGGAGGGAGGGAGCTTCCTTCCTGTTCTCTGAAGGC
DNA 2: GCCTTCAGAGAACAGGAAGGAAGCTCCCTCCCTCCT
B8: Table S4 A row 1550 (dsDNA)
DNA 1: AAGTTGGGCCTGACTTCCTTCCTGTGGGGTTGCAGC
DNA 2: GCTGCAACCCCACAGGAAGGAAGTCAGGCCCAACTT
B9: Table S4 A row 136 (dsDNA)
DNA 1: TCTTTTGATTGGGCTTCCTTCCTGTGTTTTCTCAGA
DNA 2: TCTGAGAAAACACAGGAAGGAAGCCCAATCAAAAGA
B10: Table S4 A row 2304 (dsDNA)
DNA 1: GCGGCCTGACGGGAAACGTAGTTTCCGGGGCCAAGA
DNA 2: TCTTGGCCCCGGAAACTACGTTTCCCGTCAGGCCGC
B11: Table S4 A row 2126 (dsDNA)
DNA 1: ACGCGAAAGCCCGGATAGACTTCCGCGCAGGGGCGG
DNA 2: CCGCCCCTGCGCGGAAGTCTATCCGGGCTTTCGCGT
B12: Table S4 A row 1712 (dsDNA)
DNA 1: CACGAGTCCAGGAAACAAGTGCTTCCTGCCTATGGG
DNA 2: CCCATAGGCAGGAAGCACTTGTTTCCTGGACTCGTG
B13: Table S4 A row 1809 (dsDNA)
DNA 1: AGGGCAGGATGCCAAGATGAACTACATTTCCTGGCA
DNA 2: TGCCAGGAAATGTAGTTCATCTTGGCATCCTGCCCT
B14: Table S4 A row 376 (dsDNA)
DNA 1: CGTGACACTTCTTTTCCTGTTTCCTGGGTCTCACCA
DNA 2: TGGTGAGACCCAGGAAACAGGAAAAGAAGTGTCACG
B15: Table S4 A row 1195 (dsDNA)
DNA 1: GGCGTCGCCGCCGGATTCGACTTCCTGACGTCAGGC
DNA 2: GCCTGACGTCAGGAAGTCGAATCCGGCGGCGACGCC
B16: Table S4 A row 548 (dsDNA)
DNA 1: GCGCACCGAAACGGAAGAACTTCCTTGATTAGCATA
DNA 2: TATGCTAATCAAGGAAGTTCTTCCGTTTCGGTGCGC
B17: Table S4 A row 2151 (dsDNA)
DNA 1: AGGGCTCAGAGGCGGAAGCGGAAGCACATTCTGTCA
DNA 2: TGACAGAATGTGCTTCCGCTTCCGCCTCTGAGCCCT
B18: Table S4 A row 2116 (dsDNA)
DNA 1: CCCAGCGGGCGAACTTCCTTTCCGCGCAACTCGCCC
DNA 2: GGGCGAGTTGCGCGGAAAGGAAGTTCGCCCGCTGGG
B19: Table S4 A row 677 (dsDNA)
DNA 1: ACAGCCCCGCCCGCTTCCTTCCTGCCTTCTCCACGT
DNA 2: ACGTGGAGAAGGCAGGAAGGAAGCGGGCGGGGCTGT
B20: Table S4 A row 356 (dsDNA)
DNA 1: TTGGGCCATTGTTTTCCTGCTTCCTCCCTTCAAGCC
DNA 2: GGCTTGAAGGGAGGAAGCAGGAAAACAATGGCCCAA
B21: Table S4 A row 126 (dsDNA)
DNA 1: CACTGCACACTTCCTAGCAGGCTTCCTGTGTAGCTG
DNA 2: CAGCTACACAGGAAGCCTGCTAGGAAGTGTGCAGTG
B22: Table S4 A row 502 (dsDNA)
DNA 1: CAGAGCAGCAGGAAACCATTATTTCCTCCTAGGTCT
DNA 2: AGACCTAGGAGGAAATAATGGTTTCCTGCTGCTCTG
B23: Table S4 A row 1324 (dsDNA)
DNA 1: TTGAATGGACCTCATCCTGCTTCCTGCTCTTTGCAG
DNA 2: CTGCAAAGAGCAGGAAGCAGGATGAGGTCCATTCAA
B24: Table S4 A row 2556 (dsDNA)
DNA 1: CGCGCCGGACCGGAAAGCCGGGGAAGTGGCCGAGGA
DNA 2: TCCTCGGCCACTTCCCCGGCTTTCCGGTCCGGCGCG
B25: Table S4 A row 2527 (dsDNA)
DNA 1: GCCTGAAGCCGGAAGACTATAGCTTCCCGGCATGCA
DNA 2: TGCATGCCGGGAAGCTATAGTCTTCCGGCTTCAGGC
B26: Table S4 A row 1258 (dsDNA)
DNA 1: CCATCAGCAAACATCCCACCGGATGTTTTCTTAAGC
DNA 2: GCTTAAGAAAACATCCGGTGGGATGTTTGCTGATGG
B27: Table S4 A row 1545 (dsDNA)
DNA 1: CTTCGAAGAGATTTCCTCCCGGAAAGGCCGAGCATT
DNA 2: AATGCTCGGCCTTTCCGGGAGGAAATCTCTTCGAAG
B28: Table S4 A row 180 (dsDNA)
DNA 1: AGCAATACCAGGAAATGTGTTGCTTCCTAAAGTGAT
DNA 2: ATCACTTTAGGAAGCAACACATTTCCTGGTATTGCT
B29: Table S4 A row 2604 (dsDNA)
DNA 1: AGGGGGCGGCGGCGGATGCCGGAAGAGTGCCCGCCC
DNA 2: GGGCGGGCACTCTTCCGGCATCCGCCGCCGCCCCCT
B30: Table S4 A row 834 (dsDNA)
DNA 1: AAGGCAGGAGGATGTGCTCGCGGTTTCCTGTGATGT
DNA 2: ACATCACAGGAAACCGCGAGCACATCCTCCTGCCTT
B31: Table S4 A row 1821 (dsDNA)
DNA 1: TAATCTGCAACTTCCCTGTTCTTCCTGTTAGATGTG
DNA 2: CACATCTAACAGGAAGAACAGGGAAGTTGCAGATTA
B32: Table S4 A row 1360 (dsDNA)
DNA 1: CAGAACGCACAGGAAGAGAGAGGAAACCAAGTGGGT
DNA 2: ACCCACTTGGTTTCCTCTCTCTTCCTGTGCGTTCTG
B33: Table S4 A row 2446 (dsDNA)
DNA 1: TCCCACCGTCCCATCCGCTACTTCCCGAAAACTCAA
DNA 2: TTGAGTTTTCGGGAAGTAGCGGATGGGACGGTGGGA
B34: Table S4 A row 1015 (dsDNA)
DNA 1: AGAAGCCACCACAGGAAACGGAAGAAGCCACCTCTG
DNA 2: CAGAGGTGGCTTCTTCCGTTTCCTGTGGTGGCTTCT
B35: Table S4 A row 1205 (dsDNA)
DNA 1: CTTAAACTGGAGGAAGTAAGTTTCCGTTAAAATGTG
DNA 2: CACATTTTAACGGAAACTTACTTCCTCCAGTTTAAG
B36: Table S4 A row 1213 (dsDNA)
DNA 1: ACAATATCCCAGGAAACAGACATCCGCGTGCTCGCG
DNA 2: CGCGAGCACGCGGATGTCTGTTTCCTGGGATATTGT
B37: Table S4 A row 700 (dsDNA)
DNA 1: TGGGTGACACTCCTTCCGCCTTCCGTGACCCCCATC
DNA 2: GATGGGGGTCACGGAAGGCGGAAGGAGTGTCACCCA
B38: Table S4 A row 2212 (dsDNA)
DNA 1: CTGGGCCAGGCGGAAGCTCTGCTTCCGCATGCTGGG
DNA 2: CCCAGCATGCGGAAGCAGAGCTTCCGCCTGGCCCAG
B39: Table S4 A row 1655 (dsDNA)
DNA 1: CCGCGGGGTCCGGAACTGCTTGTTCCGGCAGTGGAA
DNA 2: TTCCACTGCCGGAACAAGCAGTTCCGGACCCCGCGG
B40: Table S4 A row 2690 (dsDNA)
DNA 1: CGGGCCTCCGCCTTCCGCCCGGAACCCACCCCCGGG
DNA 2: CCCGGGGGTGGGTTCCGGGCGGAAGGCGGAGGCCCG
B41: Table S4 A row 2434 (dsDNA)
DNA 1: AGCAACAACGTCACTTCCCTTCCGGACCACAAGGGG
DNA 2: CCCCTTGTGGTCCGGAAGGGAAGTGACGTTGTTGCT
B42: Table S4 A row 110 (dsDNA)
DNA 1: TTGAGGGCTGGGCGGAAACGGAAAAGGCTAAGGGCC
DNA 2: GGCCCTTAGCCTTTTCCGTTTCCGCCCAGCCCTCAA

Target: T1, ETS1 x2
Assay: gcPBM; 10 nM ETS1
Settings: tags: N-terminal GST (pDEST15), kept (PMC6008103); chain copies: 2; label: surface-attached array probe

Binder | binding signal
B1 | 2030 PBM fluorescence, median of replicate spots
B2 | 4140 PBM fluorescence, median of replicate spots
B3 | 2610 PBM fluorescence, median of replicate spots
B4 | 4020 PBM fluorescence, median of replicate spots
B5 | 1250 PBM fluorescence, median of replicate spots
B6 | 2460 PBM fluorescence, median of replicate spots
B7 | 3590 PBM fluorescence, median of replicate spots
B8 | 5110 PBM fluorescence, median of replicate spots
B9 | 2710 PBM fluorescence, median of replicate spots
B10 | 4630 PBM fluorescence, median of replicate spots
B11 | 2080 PBM fluorescence, median of replicate spots
B12 | 3840 PBM fluorescence, median of replicate spots
B13 | 1160 PBM fluorescence, median of replicate spots
B14 | 4760 PBM fluorescence, median of replicate spots
B15 | 1940 PBM fluorescence, median of replicate spots
B16 | 2740 PBM fluorescence, median of replicate spots
B17 | 3300 PBM fluorescence, median of replicate spots
B18 | 2660 PBM fluorescence, median of replicate spots
B19 | 3660 PBM fluorescence, median of replicate spots
B20 | 1590 PBM fluorescence, median of replicate spots
B21 | 4970 PBM fluorescence, median of replicate spots

Binder | binding signal
B22 | 2360 PBM fluorescence, median of replicate spots
B23 | 3130 PBM fluorescence, median of replicate spots
B24 | 3050 PBM fluorescence, median of replicate spots
B25 | 3700 PBM fluorescence, median of replicate spots
B26 | 5080 PBM fluorescence, median of replicate spots
B27 | 1350 PBM fluorescence, median of replicate spots
B28 | 1370 PBM fluorescence, median of replicate spots
B29 | 1530 PBM fluorescence, median of replicate spots
B30 | 1650 PBM fluorescence, median of replicate spots
B31 | 2270 PBM fluorescence, median of replicate spots
B32 | 1100 PBM fluorescence, median of replicate spots
B33 | 1300 PBM fluorescence, median of replicate spots
B34 | 3380 PBM fluorescence, median of replicate spots
B35 | 1760 PBM fluorescence, median of replicate spots
B36 | 1480 PBM fluorescence, median of replicate spots
B37 | 2820 PBM fluorescence, median of replicate spots
B38 | 4240 PBM fluorescence, median of replicate spots
B39 | 1230 PBM fluorescence, median of replicate spots
B40 | 1830 PBM fluorescence, median of replicate spots
B41 | 3480 PBM fluorescence, median of replicate spots
B42 | 2150 PBM fluorescence, median of replicate spots
